Results on one molecule are retold here after publication PMC8629192 (bioRxiv, 2021).

This assay has as its target SARS-CoV-2 spike RBD-Fc recombinant protein (used for ELISA) (SARS-CoV-2, UniProt P0DTC2). Description: ELISA. A general note: An ELISA detects its analyte on a solid surface through an enzyme-linked reagent.

B1: LRRC15-His (natural protein)
chain: YHGCPSECTCSRASQVECTGARIVAVPTPLPWNAMSLQILNTHITELNESPFLNISALIALRIEKNELSRITPGAFRNLGSLRYLSLANNKLQVLPIGLFQGLDSLESLLLSSNQLLQIQPAHFSQCSNLKELQLHGNHLEYIPDGAFDHLVGLTKLNLGKNSLTHISPRVFQHLGNLQVLRLYENRLTDIPMGTFDGLVNLQELALQQNQIGLLSPGLFHNNHNLQRLYLSNNHISQLPPSVFMQLPQLNRLTLFGNSLKELSPGIFGPMPNLRELWLYDNHISSLPDNVFSNLRQLQVLILSRNQISFISPGAFNGLTELRELSLHTNALQDLDGNVFRMLANLQNISLQNNRLRQLPGNIFANVNGLMAIQLQNNQLENLPLGIFDHLGKLCELRLYDNPWRCDSDILPLRNWLLLNQPRLGTDTVPVCFSPANVRGQSLIIINVNVAVPSVHVPEVPSYPETPWYPDTPSYPDTTSVSSTTELTSPVEDYTDLTTIQVTDDRSVWGMTQAQSG
With B1, the binding result is “binds”.
